Here are results for 1 substance from paper PMC9270970.

The target of the experiment is SynNotch receptor (CD8a signal-Myc-LaG17-Notch1 minimal transmembrane core-tTA) (mouse) (UniProt Q01705).
UniProt Q01705, sequence (Q01705 whole entry): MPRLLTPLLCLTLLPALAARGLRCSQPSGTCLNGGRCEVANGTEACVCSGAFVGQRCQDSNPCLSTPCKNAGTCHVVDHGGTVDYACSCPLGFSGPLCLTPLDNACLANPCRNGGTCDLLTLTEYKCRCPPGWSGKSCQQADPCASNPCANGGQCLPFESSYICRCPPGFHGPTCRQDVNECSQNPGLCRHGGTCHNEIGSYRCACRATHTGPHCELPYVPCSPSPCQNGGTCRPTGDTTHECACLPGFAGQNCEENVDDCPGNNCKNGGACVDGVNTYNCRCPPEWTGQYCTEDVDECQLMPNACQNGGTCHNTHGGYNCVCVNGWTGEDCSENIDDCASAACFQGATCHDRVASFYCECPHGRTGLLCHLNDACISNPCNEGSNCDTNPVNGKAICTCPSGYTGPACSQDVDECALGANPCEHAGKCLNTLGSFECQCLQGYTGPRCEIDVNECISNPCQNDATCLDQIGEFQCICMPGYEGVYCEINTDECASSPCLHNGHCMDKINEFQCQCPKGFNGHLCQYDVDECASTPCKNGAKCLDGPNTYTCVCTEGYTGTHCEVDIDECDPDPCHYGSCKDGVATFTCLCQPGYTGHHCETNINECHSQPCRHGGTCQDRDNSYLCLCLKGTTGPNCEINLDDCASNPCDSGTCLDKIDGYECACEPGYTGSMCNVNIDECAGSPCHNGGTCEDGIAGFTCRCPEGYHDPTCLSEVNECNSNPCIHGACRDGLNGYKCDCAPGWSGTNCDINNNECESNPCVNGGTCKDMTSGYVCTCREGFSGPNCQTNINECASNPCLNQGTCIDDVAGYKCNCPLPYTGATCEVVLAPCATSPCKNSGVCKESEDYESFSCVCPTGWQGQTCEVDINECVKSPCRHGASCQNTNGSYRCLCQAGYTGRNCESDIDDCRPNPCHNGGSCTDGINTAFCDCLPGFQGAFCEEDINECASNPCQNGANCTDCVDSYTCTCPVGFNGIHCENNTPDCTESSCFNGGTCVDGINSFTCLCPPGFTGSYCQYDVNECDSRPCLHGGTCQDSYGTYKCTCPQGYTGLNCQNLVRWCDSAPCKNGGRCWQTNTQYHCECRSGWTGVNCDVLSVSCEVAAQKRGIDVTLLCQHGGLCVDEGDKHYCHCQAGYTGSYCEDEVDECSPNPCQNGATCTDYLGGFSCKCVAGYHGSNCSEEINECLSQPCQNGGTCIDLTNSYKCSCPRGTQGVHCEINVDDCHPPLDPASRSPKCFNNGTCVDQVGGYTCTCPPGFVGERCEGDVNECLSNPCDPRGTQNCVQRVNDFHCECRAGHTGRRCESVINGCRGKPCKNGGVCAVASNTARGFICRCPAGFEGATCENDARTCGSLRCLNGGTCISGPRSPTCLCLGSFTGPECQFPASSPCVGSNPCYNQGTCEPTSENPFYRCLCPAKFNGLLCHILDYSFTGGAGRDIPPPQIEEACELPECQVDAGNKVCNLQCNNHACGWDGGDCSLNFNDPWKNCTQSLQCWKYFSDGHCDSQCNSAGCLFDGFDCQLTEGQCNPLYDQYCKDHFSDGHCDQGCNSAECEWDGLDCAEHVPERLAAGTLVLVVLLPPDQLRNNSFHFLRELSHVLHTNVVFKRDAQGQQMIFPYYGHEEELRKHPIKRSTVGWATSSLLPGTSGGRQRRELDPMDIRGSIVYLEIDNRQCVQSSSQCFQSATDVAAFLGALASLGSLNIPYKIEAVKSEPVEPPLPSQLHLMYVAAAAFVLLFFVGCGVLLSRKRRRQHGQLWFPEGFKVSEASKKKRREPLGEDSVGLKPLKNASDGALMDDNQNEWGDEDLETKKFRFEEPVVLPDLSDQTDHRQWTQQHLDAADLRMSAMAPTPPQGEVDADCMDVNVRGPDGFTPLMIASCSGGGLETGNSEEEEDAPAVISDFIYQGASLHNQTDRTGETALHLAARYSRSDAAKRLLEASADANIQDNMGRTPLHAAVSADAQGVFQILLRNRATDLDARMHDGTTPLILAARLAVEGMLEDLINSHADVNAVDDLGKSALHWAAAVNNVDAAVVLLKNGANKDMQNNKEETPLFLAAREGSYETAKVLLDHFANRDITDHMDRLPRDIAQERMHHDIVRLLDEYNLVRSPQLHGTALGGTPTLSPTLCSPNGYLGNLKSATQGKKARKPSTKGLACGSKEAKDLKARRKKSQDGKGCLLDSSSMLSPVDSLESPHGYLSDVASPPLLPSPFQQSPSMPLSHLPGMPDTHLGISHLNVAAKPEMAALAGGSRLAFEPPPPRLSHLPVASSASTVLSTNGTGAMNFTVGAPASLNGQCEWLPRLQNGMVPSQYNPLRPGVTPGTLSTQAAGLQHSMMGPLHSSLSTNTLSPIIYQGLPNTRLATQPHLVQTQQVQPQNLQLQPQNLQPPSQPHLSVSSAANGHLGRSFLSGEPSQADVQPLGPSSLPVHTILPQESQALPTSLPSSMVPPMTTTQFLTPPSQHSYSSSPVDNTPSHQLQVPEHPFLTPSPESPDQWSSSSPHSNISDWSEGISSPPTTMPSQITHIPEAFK

For the substance “membrane-tethered extracellular EGFP (IgGK signal-EGFP-PDGFRB TMD) (ligand)”, the percentage of STC receiver cells that induce mCherry after 24 h of co-culture with different proportions of sender cells (20% to 90% sender cells) is above 90%.
